What all share (test): cell_activity; split GFP integration
Conditions in all cases: tags: 3xFlag, SV40 NLS; chain copies: 2

One data set addresses T1, GFP2 Left TAL-PBx (synthetic construct).
T1 chain: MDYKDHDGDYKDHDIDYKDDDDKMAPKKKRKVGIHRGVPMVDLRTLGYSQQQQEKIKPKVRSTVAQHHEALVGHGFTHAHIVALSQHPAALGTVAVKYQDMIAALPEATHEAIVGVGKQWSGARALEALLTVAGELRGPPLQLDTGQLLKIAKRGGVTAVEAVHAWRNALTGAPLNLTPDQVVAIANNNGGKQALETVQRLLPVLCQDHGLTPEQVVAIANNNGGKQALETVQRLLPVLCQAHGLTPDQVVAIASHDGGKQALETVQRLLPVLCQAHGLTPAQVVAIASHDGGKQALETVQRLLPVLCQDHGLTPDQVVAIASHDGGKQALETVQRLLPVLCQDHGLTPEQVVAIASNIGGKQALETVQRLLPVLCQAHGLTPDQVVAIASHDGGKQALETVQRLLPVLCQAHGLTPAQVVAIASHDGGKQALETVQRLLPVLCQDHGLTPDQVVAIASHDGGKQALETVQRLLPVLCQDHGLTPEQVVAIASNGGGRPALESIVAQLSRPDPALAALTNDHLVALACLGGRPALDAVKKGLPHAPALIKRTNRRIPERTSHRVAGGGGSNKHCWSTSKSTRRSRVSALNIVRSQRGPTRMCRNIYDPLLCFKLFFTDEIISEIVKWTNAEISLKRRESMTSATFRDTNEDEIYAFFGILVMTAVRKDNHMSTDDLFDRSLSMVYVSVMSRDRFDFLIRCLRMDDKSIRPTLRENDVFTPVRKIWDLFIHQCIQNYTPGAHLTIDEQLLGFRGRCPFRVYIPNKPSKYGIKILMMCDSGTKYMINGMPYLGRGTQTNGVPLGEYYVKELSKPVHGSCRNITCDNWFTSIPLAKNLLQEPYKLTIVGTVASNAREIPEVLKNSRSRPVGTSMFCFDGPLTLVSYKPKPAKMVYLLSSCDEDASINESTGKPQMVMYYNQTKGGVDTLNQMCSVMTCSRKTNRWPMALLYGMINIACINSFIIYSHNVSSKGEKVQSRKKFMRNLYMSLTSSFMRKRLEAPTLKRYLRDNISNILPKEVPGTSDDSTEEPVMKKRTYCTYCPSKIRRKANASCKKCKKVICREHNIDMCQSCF
On the procedure:
(§1) To determine if the optimal spacer length is consistent from one TAL-ssSPB to the next, similar reporters were constructed with TAL target sites for the GFP1 Left, GFP2 Right, GFP2 Left, and ZFM268 TAL-PBxs as described above. These constructs were tested using a narrower set of spacer lengths of 11 bp, 12 bp, 13 bp, 14 bp, 15 bp constructs for GFP1 Left (SEQ ID Nos. 345-349), GFP2 Left (SEQ ID Nos. 350-354), GFP2 Right (SEQ ID Nos. 355-359) and ZFM268 (SEQ ID NOs: 340-344).
(§2) Each reporter plasmid and the donor plasmid were cotransfected into HEK293T cells with the corresponding TAL-ssSPB expression plasmid. 120,000 HEK293T cells were plated in 24 well plates in 500 ul of DMEM medium supplemented with 10% FBS. The following day, a transfection mixture containing 50 ng of the TAL-ssSPB expression vector, 225 ng of the reporter plasmid, 225 ng of donor plasmid and 1 μl of JetPrime transfection reagent in a total volume of 50 μl of JetPrime buffer were assembled. The mixture was added to the HEK293T cells and the cells were incubated for four days at 37° C. at 5% CO2, splitting the cells 1:6 at day one. The percentage of on-target site-specific transposition positive cells for the various spacer length constructs were determined by FACS analysis and the results are shown in Table 18.

The target of a further data set is T2, GFP1 Left TAL-PBx (synthetic construct).
T2 chain: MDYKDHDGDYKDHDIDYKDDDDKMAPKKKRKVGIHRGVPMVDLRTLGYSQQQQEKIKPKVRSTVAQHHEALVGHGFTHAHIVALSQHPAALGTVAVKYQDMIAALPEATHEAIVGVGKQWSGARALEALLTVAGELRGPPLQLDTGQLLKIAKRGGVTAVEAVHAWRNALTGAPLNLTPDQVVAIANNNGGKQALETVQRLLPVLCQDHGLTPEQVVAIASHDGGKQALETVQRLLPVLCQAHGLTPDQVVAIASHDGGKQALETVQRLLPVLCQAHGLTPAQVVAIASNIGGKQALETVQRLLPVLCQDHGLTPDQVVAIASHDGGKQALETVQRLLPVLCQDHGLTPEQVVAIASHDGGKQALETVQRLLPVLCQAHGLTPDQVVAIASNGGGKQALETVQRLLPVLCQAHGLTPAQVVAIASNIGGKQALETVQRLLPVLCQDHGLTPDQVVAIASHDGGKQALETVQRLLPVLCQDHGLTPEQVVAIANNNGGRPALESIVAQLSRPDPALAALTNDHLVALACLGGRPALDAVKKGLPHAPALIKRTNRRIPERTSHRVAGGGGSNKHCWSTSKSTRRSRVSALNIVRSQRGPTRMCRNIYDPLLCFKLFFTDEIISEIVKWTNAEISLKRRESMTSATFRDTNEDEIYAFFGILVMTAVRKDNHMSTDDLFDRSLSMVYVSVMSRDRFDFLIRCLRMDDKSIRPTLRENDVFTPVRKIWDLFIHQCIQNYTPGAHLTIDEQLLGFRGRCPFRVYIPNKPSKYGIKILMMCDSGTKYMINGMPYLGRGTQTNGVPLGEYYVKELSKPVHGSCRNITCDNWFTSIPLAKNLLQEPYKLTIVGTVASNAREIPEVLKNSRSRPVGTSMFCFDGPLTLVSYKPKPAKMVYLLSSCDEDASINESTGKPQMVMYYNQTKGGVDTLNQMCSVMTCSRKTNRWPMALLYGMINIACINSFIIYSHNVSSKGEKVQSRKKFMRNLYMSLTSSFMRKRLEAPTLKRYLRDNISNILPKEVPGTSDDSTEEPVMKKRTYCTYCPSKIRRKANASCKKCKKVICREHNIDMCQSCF
On the procedure:
as §1, §2

The target of the next data set is T3, ZFM268 TAL-PBx (synthetic construct).
T3 chain: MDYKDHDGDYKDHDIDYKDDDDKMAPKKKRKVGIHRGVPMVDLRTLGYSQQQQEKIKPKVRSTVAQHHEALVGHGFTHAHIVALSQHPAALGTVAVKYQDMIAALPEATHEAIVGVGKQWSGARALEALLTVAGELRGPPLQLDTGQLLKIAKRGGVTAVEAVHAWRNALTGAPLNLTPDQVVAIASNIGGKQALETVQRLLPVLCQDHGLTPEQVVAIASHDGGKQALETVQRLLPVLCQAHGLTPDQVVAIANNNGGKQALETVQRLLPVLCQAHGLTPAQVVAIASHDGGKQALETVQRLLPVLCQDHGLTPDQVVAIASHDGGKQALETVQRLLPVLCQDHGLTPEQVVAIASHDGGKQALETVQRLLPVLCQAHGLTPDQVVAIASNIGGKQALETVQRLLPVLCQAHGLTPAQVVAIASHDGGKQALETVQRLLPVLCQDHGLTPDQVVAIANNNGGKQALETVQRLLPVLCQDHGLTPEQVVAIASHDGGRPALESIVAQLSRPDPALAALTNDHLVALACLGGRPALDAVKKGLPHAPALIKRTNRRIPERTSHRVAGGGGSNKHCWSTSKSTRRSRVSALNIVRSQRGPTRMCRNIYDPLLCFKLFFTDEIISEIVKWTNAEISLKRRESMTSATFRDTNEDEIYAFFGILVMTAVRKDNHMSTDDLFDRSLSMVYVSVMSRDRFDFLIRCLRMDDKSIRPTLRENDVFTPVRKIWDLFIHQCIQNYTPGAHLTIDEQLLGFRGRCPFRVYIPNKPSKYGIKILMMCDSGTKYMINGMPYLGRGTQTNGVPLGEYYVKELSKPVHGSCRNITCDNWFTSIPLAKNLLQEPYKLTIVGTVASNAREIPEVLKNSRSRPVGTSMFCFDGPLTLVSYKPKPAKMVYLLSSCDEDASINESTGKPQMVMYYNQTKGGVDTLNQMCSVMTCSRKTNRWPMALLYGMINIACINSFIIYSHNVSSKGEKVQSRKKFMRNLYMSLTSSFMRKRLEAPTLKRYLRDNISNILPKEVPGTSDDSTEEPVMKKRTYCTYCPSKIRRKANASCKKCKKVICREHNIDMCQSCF
On the procedure: as §1, §2

The target of a further data set is T4, GFP2 Right TAL-PBx (synthetic construct).
T4 chain: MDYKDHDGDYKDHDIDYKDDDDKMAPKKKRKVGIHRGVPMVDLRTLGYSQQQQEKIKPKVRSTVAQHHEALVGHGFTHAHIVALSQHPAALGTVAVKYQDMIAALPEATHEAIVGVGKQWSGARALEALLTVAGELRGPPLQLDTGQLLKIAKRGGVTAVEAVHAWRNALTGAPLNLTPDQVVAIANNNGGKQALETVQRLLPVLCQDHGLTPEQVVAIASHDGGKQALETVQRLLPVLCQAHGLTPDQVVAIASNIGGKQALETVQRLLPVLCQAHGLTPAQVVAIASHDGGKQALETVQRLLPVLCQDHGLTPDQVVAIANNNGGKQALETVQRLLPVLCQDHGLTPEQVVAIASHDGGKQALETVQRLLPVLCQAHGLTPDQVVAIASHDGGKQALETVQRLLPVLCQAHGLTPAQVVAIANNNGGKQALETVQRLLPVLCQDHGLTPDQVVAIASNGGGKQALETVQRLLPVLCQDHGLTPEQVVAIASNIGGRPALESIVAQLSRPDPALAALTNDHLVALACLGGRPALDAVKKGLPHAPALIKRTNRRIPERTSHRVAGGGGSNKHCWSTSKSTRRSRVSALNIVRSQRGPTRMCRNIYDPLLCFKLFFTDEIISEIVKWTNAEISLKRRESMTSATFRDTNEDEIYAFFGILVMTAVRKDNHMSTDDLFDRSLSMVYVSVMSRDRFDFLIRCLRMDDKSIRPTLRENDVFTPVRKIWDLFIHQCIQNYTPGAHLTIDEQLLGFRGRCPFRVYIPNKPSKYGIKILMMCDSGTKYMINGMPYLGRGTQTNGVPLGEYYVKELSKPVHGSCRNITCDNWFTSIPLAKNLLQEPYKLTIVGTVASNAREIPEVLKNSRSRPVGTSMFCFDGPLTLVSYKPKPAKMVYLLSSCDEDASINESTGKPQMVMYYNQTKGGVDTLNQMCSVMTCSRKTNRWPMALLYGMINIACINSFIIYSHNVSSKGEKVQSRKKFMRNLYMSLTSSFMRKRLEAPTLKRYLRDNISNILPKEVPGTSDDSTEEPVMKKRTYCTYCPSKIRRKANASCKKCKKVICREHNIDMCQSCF
The procedure: as §1, §2

B1: GFP2L 12 bp spacer (dsDNA)
DNA 1: TGGCCCACCCTGCAATCTCCGGCTTAACTACTGACTGAAAGGGTGGGCCA
DNA 2: TGGCCCACCCTTTCAGTCAGTAGTTAAGCCGGAGATTGCAGGGTGGGCCA
The molecule B1 had an activity with GFP2 Left TAL-PBx of 22.4 % GFP+.

B2: GFP2L 13 bp spacer (dsDNA)
DNA 1: TGGCCCACCCTGCAATCTCACGGCTTAACTACTGACCTGAAAGGGTGGGCCA
DNA 2: TGGCCCACCCTTTCAGGTCAGTAGTTAAGCCGTGAGATTGCAGGGTGGGCCA
In the data set with GFP2 Left TAL-PBx, B2 yielded an activity of 23.5 % GFP+.

B3: GFP1L 12 bp spacer (dsDNA)
DNA 1: TGCCACCTACGGCAATCTCCGGCTTAACTACTGACTGAACGTAGGTGGCA
DNA 2: TGCCACCTACGTTCAGTCAGTAGTTAAGCCGGAGATTGCCGTAGGTGGCA
As to B3, the activity with GFP1 Left TAL-PBx came out at 13.7 % GFP+.

B4: ZFM268 TAL 13 bp spacer (dsDNA)
DNA 1: TACGCCCACGCGCAATCTCACGGCTTAACTACTGACCTGAAGCGTGGGCGTA
DNA 2: TACGCCCACGCTTCAGGTCAGTAGTTAAGCCGTGAGATTGCGCGTGGGCGTA
The molecule B4 showed an activity with ZFM268 TAL-PBx of 21.2 % GFP+.

B5: GFP2R 13 bp spacer (dsDNA)
DNA 1: TGCACGCCGTAGCAATCTCACGGCTTAACTACTGACCTGAATACGGCGTGCA
DNA 2: TGCACGCCGTATTCAGGTCAGTAGTTAAGCCGTGAGATTGCTACGGCGTGCA
B5 had an activity in the data set with GFP2 Right TAL-PBx of 15.8 % GFP+.

B6: GFP2R 12 bp spacer (dsDNA)
DNA 1: TGCACGCCGTAGCAATCTCCGGCTTAACTACTGACTGAATACGGCGTGCA
DNA 2: TGCACGCCGTATTCAGTCAGTAGTTAAGCCGGAGATTGCTACGGCGTGCA
Regarding B6, in the data set with GFP2 Right TAL-PBx, the activity worked out at 16.9 % GFP+.

B7: ZFM268 TAL 12 bp spacer (dsDNA)
DNA 1: TACGCCCACGCGCAATCTCCGGCTTAACTACTGACTGAAGCGTGGGCGTA
DNA 2: TACGCCCACGCTTCAGTCAGTAGTTAAGCCGGAGATTGCGCGTGGGCGTA
With B7, in the data set with ZFM268 TAL-PBx, the activity was found to be 21.8 % GFP+.

B8: GFP1L 13 bp spacer (dsDNA)
DNA 1: TGCCACCTACGGCAATCTCACGGCTTAACTACTGACCTGAACGTAGGTGGCA
DNA 2: TGCCACCTACGTTCAGGTCAGTAGTTAAGCCGTGAGATTGCCGTAGGTGGCA
B8 displayed an activity with GFP1 Left TAL-PBx of 17 % GFP+.

Source of the values: patent publication US20240392262A1, “TRANSPOSASE AND USES THEREOF” (Poseida Therapeutics, Inc., published 2024).
